The target of the assay is Pyruvate kinase M2 (mouse (endogenous in mouse skin)) (UniProt P52480). Put plainly: not stated; detection of dimeric and tetrameric PKM2 protein levels in the skin from sham and skin flap mice on postoperative day 7.

Several values for one entry are separate records, joined by “and”; a condition that tells them apart may be missing. Equal values may be shown once.

Chain of Pyruvate kinase M2, P52480 1-531 (enzyme; other documents disagree on this pair) (P52480 whole entry): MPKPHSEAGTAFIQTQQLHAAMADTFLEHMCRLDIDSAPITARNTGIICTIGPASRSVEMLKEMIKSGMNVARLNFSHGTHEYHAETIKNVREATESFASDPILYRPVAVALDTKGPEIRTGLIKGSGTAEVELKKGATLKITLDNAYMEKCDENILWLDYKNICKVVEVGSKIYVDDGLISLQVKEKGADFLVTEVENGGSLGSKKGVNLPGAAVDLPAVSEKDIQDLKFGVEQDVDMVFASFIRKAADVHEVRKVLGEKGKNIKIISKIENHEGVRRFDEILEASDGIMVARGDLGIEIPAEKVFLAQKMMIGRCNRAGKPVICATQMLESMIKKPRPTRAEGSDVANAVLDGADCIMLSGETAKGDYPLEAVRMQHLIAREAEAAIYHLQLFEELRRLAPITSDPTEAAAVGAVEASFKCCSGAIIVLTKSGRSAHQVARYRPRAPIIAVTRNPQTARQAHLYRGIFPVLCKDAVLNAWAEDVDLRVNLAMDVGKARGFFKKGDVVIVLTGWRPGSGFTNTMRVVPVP

As to “Pyruvate kinase M2, P52480 1-531 (enzyme; other documents disagree on this pair)”, the stoichiometry N (commonly the number of molecules, sites or subunits per partner or assembly) was 4 and 2.

The values above are taken from paper PMC11653614.
